We go through six substances from US20050182242A1, “Global analysis of protein activities using proteome chips” (priority 2001, published 2005).

The target of one data set is T1, calmodulin (Homo sapiens, UniProt P0DP23).
T1 construct: purchased CalBiochem, USA
Description: Yeast proteome chip probed with biotinylated calmodulin. In kind it is binding. Conditions: biotinylated calmodulin in the presence of calcium. The text has this: To test for protein-protein interactions, the yeast proteome was probed with calmodulin (11). Calmodulin is a highly conserved calcium-binding protein involved in many calcium-regulated cellular processes and has many known physical partners (Hook et al., 2001, Annu. Rev. Pharmacol. Toxicol. 41:471). The calmodulin probe was biotinylated, and bound probe was detected using Cy3-labeled streptavidin. As a control, the yeast proteome was probed with Cy3-labeled streptavidin alone.
Generally, protein-protein interactions can be assayed as follows. Blocked proteome chips are washed three to five times in PBS buffer, and the extra liquid on the glass surface is removed by tapping the slides vertically on a KIMWIPE™. 200 ∞l of biotinylated protein probe is added to the proteome chip and immediately covered by a hydrophobic plastic cover slip (GRACE BIO-LABS™, USA). After trapped air bubbles are removed, the chip is incubated in a humidity chamber at room temperature (RT) for one hour. To remove the cover slip, the chip is immersed into large volume of PBS buffer (>50 ml), and the slip should float away. The chip is then moved to a second PBS bath (>50 ml) and washed 3×5 min with shaking at RT. […]

For data set [1], the system named is phosphatidylcholine (PC) liposomes. Put plainly: Yeast proteome chip probed with PC liposomes. The conditions noted are these: liposome binding signal on yeast proteome chip, Cy3-streptavidin detection. The text has this: (§1) To identify PI-binding proteins in yeast, liposomes were used as probes because the liposome provides the most relevant physiological condition to assay the interactors. Six types of liposomes were used. Each contains phosphatidylcholine (“PC”) with 1% (w/w) N-(biotinoyl)-1,2-dihexadecanoyl-sn-glycero-3-phosphoethanolamine, triethylammonium salt (biotin DHPE). The biotinylated lipid serves as a label that can be detected by Cy3-streptavidin (21). In addition to PC, the five other liposomes contain either 5% (w/w) PI(3)P, PI(4)P, PI(3,4)P2, PI(4,5)P2, or PI(3,4,5)P3 (FIG. 3A).
(§2) The protein-liposome interaction was assayed as follows. Appropriate amounts of each lipid in chloroform were mixed and dried under nitrogen. The lipid mixture was resuspended in TBS buffer by vortexing. The liposomes were created by sonication. Blocked proteome chips were washed three to five times in PBS buffer, and the extra liquid on the glass surface was removed by tapping the slides vertically on a KIMWIPE™. 200 μl of liposome solution was added to the proteome chip and immediately covered by a hydrophobic plastic cover slip (GRACE BIO-LAB™, USA). After trapped air bubbles were removed, the chip was incubated in a humidity chamber at RT for one hour. To remove the cover slip, the chip was immersed into large volume of PBS buffer (50 ml), so that the slip would float away. The chip was then moved to a second PBS bath (>50 ml) and washed 3×5 min with shaking at RT. After removing extra liquid on the surface of the chip, about 100 μl of Cy3 or Cy5 conjugated streptavidin (PIERCE™, USA; 1:2000 to 1:4000 dilution) was added to the surface and covered by a hydrophobic plastic cover slip (GRACE BIO-LABS™, USA). The chip was incubated for greater than 30 min in the dark at RT. The chip was then washed as described above. To completely remove the liquid on the chip, the chip was spun to dryness at 1500-2000 rpm for 5-10 min at RT.
(§3) • 1. S. Fields, Y. Kohara, D. J. Lockhart, Proc. Natl. Acad. Sci. 96, 8825 (1999); A. Goffeau et al., Science 274, 563 (1996). • 2 P. Ross-Macdonald et al., Nature 402, 413 (1999); J. L., DeRisi, V. R. Iyer, P. O. Brown, Science 278, 680 (1997); E. A. Winzeler et al., Science 285, 901 (1999). P. Uetz et al., Nature 403, 623 (2000); T. Ito et al., Proc. Natl. Acad. Sci. USA. 97, 1143 (2000) • 3 H. Zhu, M. Snyder, Curr. Opin. Chem. Biol. 5, 40 (2001). • 4 M. R. Martzen et al., Science 286, 1153 (1999). • 5 H. Zhu et al., Nat. Genet. 26, 283 (2000). • 6 G. MacBeath, S. L. Schreiber, Science 289, 1760 (2000). • 7 A. Caveman, J. Cell Sci. 113, 3543 (2000). • 8 P. Arenkov et al., Anal. Biochem 278, 123 (2000). • 9 D. A. Mitchell, T. K. Marshall, R. J. Deschenes, Yeast 9, 715 (1993). The expression vector pEGH was created by inserting an RGS-HisX6 epitope tag between the GST gene and the polycloning site of pEG(KG). The yeast ORFs were cloned using the strategy described previously (5), except every step was done in a 96-well format. Plasmid DNAs confirmed by DNA sequencing were reintroduced into both yeast (Y258) and E. coli (DH5a). […] 0.1 mM calcium was present in buffers in all subsequent steps. The chip was washed three times with PBS at RT. Cy3-conjugated streptavidin (Jackson IR, USA) (1:5000 dilution) was added to the chip and incubated for 30 min at RT. After extensive washing, the chip was spun dry and scanned using a microarray scanner; the data was subsequently acquired with the GENEPIX™ array densitometry software (Axon, USA). • 12 S. S. Hook, A. R. Means, Annu. Rev. […]

The subject of another data set is PI(3,4,5)P3 liposomes. Description: Yeast proteome chip probed with PI(3,4,5)P3 liposomes. The conditions noted are these: liposome binding signal on yeast proteome chip, Cy3-streptavidin detection.
Source text: as §1, §2
(§4) • 1. S. Fields, Y. Kohara, D. J. Lockhart, Proc. Natl. Acad. Sci. 96, 8825 (1999); A. Goffeau et al., Science 274, 563 (1996). • 2 P. Ross-Macdonald et al., Nature 402, 413 (1999); J. L., DeRisi, V. R. Iyer, P. O. Brown, Science 278, 680 (1997); E. A. Winzeler et al., Science 285, 901 (1999). P. Uetz et al., Nature 403, 623 (2000); T. Ito et al., Proc. Natl. Acad. Sci. USA. 97, 1143 (2000) • 3 H. Zhu, M. Snyder, Curr. Opin. Chem. Biol. 5, 40 (2001). • 4 M. R. Martzen et al., Science 286, 1153 (1999). • 5 H. Zhu et al., Nat. Genet. 26, 283 (2000). • 6 G. MacBeath, S. L. Schreiber, Science 289, 1760 (2000). • 7 A. Caveman, J. Cell Sci. 113, 3543 (2000). • 8 P. Arenkov et al., Anal. Biochem 278, 123 (2000). • 9 D. A. Mitchell, T. K. Marshall, R. J. Deschenes, Yeast 9, 715 (1993). The expression vector pEGH was created by inserting an RGS-HisX6 epitope tag between the GST gene and the polycloning site of pEG(KG). The yeast ORFs were cloned using the strategy described previously (5), except every step was done in a 96-well format. Plasmid DNAs confirmed by DNA sequencing were reintroduced into both yeast (Y258) and E. coli (DH5a). […] 0.1 mM calcium was present in buffers in all subsequent steps. The chip was washed three times with PBS at RT. Cy3-conjugated streptavidin (Jackson IR, USA) (1:5000 dilution) was added to the chip and incubated for 30 min at RT. After extensive washing, the chip was spun dry and scanned using a microarray scanner; the data was subsequently acquired with the GENEPIX™ array densitometry software (Axon, USA). • 12 S. S. Hook, A. R. Means, Annu. Rev. Pharmacol. Toxicol.41, 471 (2001). • 13 M. S. Cyert, R. Kunisawa, D. Kaim, J. Thorner, Proc. Natl. Acad. Sci. USA 88, 7376 (1991). • 14 D. A. Stirling, K. A. Welch, M. J. Stark, EMBO J. 13, 4329 (1994). • 15 F. Bohl, Kruse, EMBO J. 19, 5514 (2000); E. Bertrand et al., Mol. Cell 2, 437 (1998). • 16 D. C. Winter, E. Y. Choe, R. Li, Proc. Nat. Acad Sci. USA 96, 7288 (1999). • 17 C.

For another data set, the system named is PI(3,4)P2 liposomes. Put plainly: Yeast proteome chip probed with PI(3,4)P2 liposomes. The conditions noted are these: liposome binding signal on yeast proteome chip, Cy3-streptavidin detection.
Source text: as §1, §2, §4

In another data set the test system is PI(3)P liposomes. Description: Yeast proteome chip probed with PI(3)P liposomes. The conditions noted are these: liposome binding signal on yeast proteome chip, Cy3-streptavidin detection.
Source text: as §1
The protein-liposome interaction was assayed as follows. Appropriate amounts of each lipid in chloroform were mixed and dried under nitrogen. The lipid mixture was resuspended in TBS buffer by vortexing. The liposomes were created by sonication. Blocked proteome chips were washed three to five times in PBS buffer, and the extra liquid on the glass surface was removed by tapping the slides vertically on a KIMWIPE™. 200 μl of liposome solution was added to the proteome chip and immediately covered by a hydrophobic plastic cover slip (GRACE BIO-LAB™, USA). After trapped air bubbles were removed, the chip was incubated in a humidity chamber at RT for one hour. To remove the cover slip, the chip was immersed into large volume of PBS buffer (50 ml), so that the slip would float away. […]

Another data set relates to PI(4,5)P2 liposomes. Put plainly: Yeast proteome chip probed with PI(4,5)P2 liposomes. The conditions noted are these: liposome binding signal on yeast proteome chip, Cy3-streptavidin detection.
Source text: as §1, §2, §4

A further data set has as its system PI(4)P liposomes. Description: Yeast proteome chip probed with PI(4)P liposomes. The conditions noted are these: liposome binding signal on yeast proteome chip, Cy3-streptavidin detection.
Source text: as §1, §2, §3

A further data set relates to six different liposomes. Description: Reverse membrane assay: proteins spotted on nitrocellulose probed with six liposomes. In kind it is binding. Conditions: HRP-conjugated streptavidin. Here is the method:
B. A reverse assay was carried out to test for protein-lipid interactions. The proteins were prepared and spotted onto nitrocellulose filters in a dilution series and probed with the six different liposomes. As a control, the six liposomes were also added to the BSA-blocked membrane. After extensive washing, the bound liposomes were detected using an HRP-conjugated streptavidin and an ECL kit.
C. Linear correlation between the binding signals and the amounts of Rim15p in a membrane assay. When liposome-binding signals of Rim15p from the membrane assay (FIG. 4B) were plotted against the concentration gradient of the spotted Rim15p, the binding signals of PI(4)P, PI(3,4)P2, PI(3)P, and PI(4,5)P2 correlated linearly with the amounts of Rim15p.
Therefore, six proteins, i.e., Rim15p, Eno2p, Hxk1p, Sps1p, Yg1059wp, and Gcn2p, were further tested for phosphoinositol binding using two types of standard assays (Williamson, 2000, Nat. Struct Biol. 7(10):834-7). For Rim15p, Eno2p, and Hxk1p, PI(4,5)P2 liposomes were first adhered to a nitrocellulose membrane, which was then blocked by BSA; different amounts of the GST fusion proteins and a GST control were used to probe the membrane, and bound proteins were detected using anti-GST antibodies. […] We also carried out the reverse assay for four GST fusion proteins, Rim15p, Sps1p, Yg1059wp, and Gcn2p (Guerra et al., 2000, Biosci. Rep. 20: 41). Different amounts of these purified proteins were spotted onto nitrocellulose filters and probed with the six different liposomes (FIG. 5B). The bound liposomes were detected using a horseradish peroxidase (“HRP”)-conjugated streptavidin.

With “Arc35p: component of the Arp2/3 actin-organizing complex”, the calmodulin binding result with calmodulin is on record as “identified”.
In turn, “GCN2: yeast GST-HisX6 fusion protein on proteome chip” gave a PC in data set [1] of 1087.04. For the same substance, the “PI(3, 4, 5)P3” value in the data set on PI(3,4,5)P3 liposomes is 975.60. Also, the “PI(3, 4)P2” value in the data set on PI(3,4)P2 liposomes was 232.01. The “PI(3)P” value in the data set with PI(3)P liposomes was determined as 26.50. For the same substance, in the data set on PI(4,5)P2 liposomes, the “PI(4, 5)P2” value amounted to 505.60. Besides, the “PI(4)P” value in the data set on PI(4)P liposomes turned out to be 1356.97. Further, the “liposome binding in reverse membrane assay” value in the data set with six different liposomes is “bound strongest to PI(3)P and PI(4)P and PI(3,4)P2”.
For “PET9: yeast GST-HisX6 fusion protein on proteome chip”, the PC in data set [1] was 14.97. Also, the “PI(3, 4, 5)P3” value in the data set with PI(3,4,5)P3 liposomes amounted to 17.66. In addition, the “PI(3, 4)P2” value with PI(3,4)P2 liposomes is reported as −5.81. Besides, the “PI(4, 5)P2” value with PI(4,5)P2 liposomes worked out at 26.13.
In data set [1], “RRP5: yeast GST-HisX6 fusion protein on proteome chip” registered a PC of 58.11. For the same substance, the “PI(3, 4, 5)P3” value in the data set with PI(3,4,5)P3 liposomes worked out at 21.26. Further, the “PI(3, 4)P2” value with PI(3,4)P2 liposomes was 22.60. In the data set with PI(4,5)P2 liposomes, the “PI(4, 5)P2” value turned out to be 73.38. Also, in the data set with PI(4)P liposomes, the “PI(4)P” value stood at 60.31.
In the case of “SDS3: yeast GST-HisX6 fusion protein on proteome chip”, the “PI(3, 4, 5)P3” value with PI(3,4,5)P3 liposomes turned out to be 9.67. In addition, the “PI(3, 4)P2” value with PI(3,4)P2 liposomes is on record as 3.45. For the same substance, the “PI(4, 5)P2” value in the data set with PI(4,5)P2 liposomes is recorded as 4.35. For the same substance, the “PI(4)P” value with PI(4)P liposomes is given as 11.76.
Consider “SSB1: yeast GST-HisX6 fusion protein on proteome chip”, for which, in data set [1], the PC is reported as 12.91. Also, in the data set with PI(3,4,5)P3 liposomes, the “PI(3, 4, 5)P3” value stood at 4.27. Moreover, the “PI(3, 4)P2” value with PI(3,4)P2 liposomes is 6.28. Also, the “PI(4, 5)P2” value in the data set on PI(4,5)P2 liposomes amounted to 1.31. In addition, in the data set on PI(4)P liposomes, the “PI(4)P” value is reported as 16.98.
